1 substance from article PMC2148441 can be followed below.

The assay addresses human phosphopantetheinyl transferase (human) (UniProt Q9NRN7).

Consider “ACP domain of human fatty acid synthase with the hydrophobic patch Leu2157, Met2158, Val2160 replaced by alanine (from UniProt P49327 2117-2205) (domain or fragment)”, for which the Km for ACP in the PPT reaction after replacement of the hydrophobic patch by alanines (data not shown) was more than 1000 fold.
